Reference: paper PMC10782944 (Science immunology, 2023)

Columns and labels:
Experiment in all cases: SPR
[1] = molecular target: CNGB3 peptide/HLA-A*24:02 (Homo sapiens, HLA-A*24:02, strain)
PHOX2B/HLA-A*24:02/β2m = PHOX2B/HLA-A*24:02/β2m (Homo sapiens, HLA-A*24:02, strain)
GLB1 peptide/HLA-A*24:02 = GLB1 peptide/HLA-A*24:02 (Homo sapiens, HLA-A*24:02, strain)
ATG2A/HLA-A*24:02 = ATG2A/HLA-A*24:02 (Homo sapiens, HLA-A*24:02, strain)

binding result [1]: binds
Kd (PHOX2B/HLA-A*24:02/β2m): 11 nM
binding result (GLB1 peptide/HLA-A*24:02): binds
Kd (ATG2A/HLA-A*24:02): 1000 nM
B1: peptide-centric CAR (PC-CAR) 10LH, single-chain fragment variable (scFv) (scFv, V domains shown)
V domain 1: EVQLLESGGGLVQPGGSLRLSCAASGFTFDSYAMSWVRQAPGKGLEWVSAISGYGGSTYYADSVKGRFTISRDNSKNTLYLQMNSLRAEDTAVYYCAKYTYFLDAFDIWGQGTMVTVSS
V domain 2: QSVLTQPPSVSVSPGQTASITCSGDSLGNKYACWYQQKPGQSPVLVIYQDSKRPSGIPERFSGSNSGNTATLTISGTQAMDEADYYCQAWDSSRGYTVVFGTGTKVTVS
